In patent US20140057323A1, “ENHANCED CELLODEXTRIN METABOLISM” (The Board of Trustees of the University of Illinois, priority 2011, published 2014):
Residue numbers refer to the chain shown, from its start. In names and notes the source's numbering stands.

What was measured:
[1] = target: S. cerevisiae hexokinase Hxk2 (NP_011261) (Saccharomyces cerevisiae, UniProt P04807); assay: Effect of cellobiose on activity of purified hexokinase Hxk2; assay type: biochemical; conditions: read-out: reduction of hexokinase activity by cellobiose
S. cerevisiae hexokinase Hxk2 (NP_011261), sequence (P04807 whole entry): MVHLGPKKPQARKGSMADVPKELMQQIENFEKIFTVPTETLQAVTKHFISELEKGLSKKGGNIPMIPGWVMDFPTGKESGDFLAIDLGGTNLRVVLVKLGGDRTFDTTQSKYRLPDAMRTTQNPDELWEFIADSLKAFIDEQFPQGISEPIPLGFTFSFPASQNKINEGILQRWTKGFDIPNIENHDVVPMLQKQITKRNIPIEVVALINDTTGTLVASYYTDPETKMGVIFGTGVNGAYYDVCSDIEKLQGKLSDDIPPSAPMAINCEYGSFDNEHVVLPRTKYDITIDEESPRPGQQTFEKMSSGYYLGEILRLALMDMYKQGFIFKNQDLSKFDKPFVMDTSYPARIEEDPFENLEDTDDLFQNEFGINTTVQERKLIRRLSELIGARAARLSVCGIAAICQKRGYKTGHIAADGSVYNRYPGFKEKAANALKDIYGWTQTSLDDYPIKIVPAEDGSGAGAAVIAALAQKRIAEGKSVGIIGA
Protocol: (§1) The amount of hexokinase activity in cell extracts was determined by coupling the production of glucose-6-phosphate to the reduction of NADP^+ by glucose-6-phosphate dehydrogenase. 10 μg of cell extract was added to 1 mL of an assay mixture consisting of 50 mM Tris-HCl [pH 8.0 at 30° C.], 13.3 mM MgCl2, 540 μM ATP, 20 μM NADP^+, 1 U S. cerevisiae glucose-6-phosphate dehydrogenase, and 112 mM glucose. The number of pmol of glucose-6-phosphate produced per second was calculated by multiplying the rate of increase at 340 nm by 1.85×10^3, a conversion that was established from a glucose-6-phosphate standard curve.
(§2) The Hxk1 (Accession: NP_116711), Hxk2 (Accession: NP_011261), and Glk1 (Accession: NP_009890) genes were expressed and purified in E. coli. First, the genes were cloned into the PmlI and XhoI restriction sites of the expression plasmid pET302. Hxk1 gene was amplified using the following primers: […]
(§3) These constructs were transformed into the BL21(DE3) strain of E. coli, and the proteins were expressed and purified using Nickel-NTA agarose beads from Qiagen following the protocol for native batch purification provided by Qiagen. […] Protein concentrations were determined by the absorbance at 280 nm using extinction coefficients of 45840 M^−1 cm^−1, 45840 M^−1 cm^−1 and 30370 M^−1 cm^−1, for Hxk1, Hxk2 and Glk1, respectively. […]

[2] = target: S. cerevisiae hexokinase Hxk1 (NP_116711) (Saccharomyces cerevisiae, UniProt P04806); assay: Effect of cellobiose on activity of purified hexokinase Hxk1; assay type: biochemical; conditions: Hxk1, up to 184 mM cellobiose
S. cerevisiae hexokinase Hxk1 (NP_116711), sequence (P04806 whole entry): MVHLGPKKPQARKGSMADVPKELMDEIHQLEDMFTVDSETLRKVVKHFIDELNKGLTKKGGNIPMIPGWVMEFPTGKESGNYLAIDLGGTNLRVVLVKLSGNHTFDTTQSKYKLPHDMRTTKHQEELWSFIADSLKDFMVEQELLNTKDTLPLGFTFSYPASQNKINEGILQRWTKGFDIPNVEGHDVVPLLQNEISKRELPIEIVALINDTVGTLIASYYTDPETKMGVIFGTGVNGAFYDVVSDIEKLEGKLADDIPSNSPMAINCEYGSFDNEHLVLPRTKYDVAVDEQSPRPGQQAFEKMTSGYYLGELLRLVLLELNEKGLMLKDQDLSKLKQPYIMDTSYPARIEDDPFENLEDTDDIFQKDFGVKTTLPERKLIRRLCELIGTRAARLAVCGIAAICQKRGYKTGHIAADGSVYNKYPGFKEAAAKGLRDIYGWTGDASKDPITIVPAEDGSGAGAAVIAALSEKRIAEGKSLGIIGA
Protocol: as §1, §2, §3

[3] = target: T1, Neurospora crassa cellodextrin transporter CDT-1 (NCU00801), wild type, SEQ ID NO: 9, GFP-tagged, in S. cerevisiae D452-2 (Neurospora crassa, UniProt Q7SCU1); assay: Transporter kinetics, [3H]-cellobiose uptake into yeast; assay type: cell-based; conditions: CDT-1 WT
T1 construct: [3H]-cellobiose uptake into whole cells
T1 sequence (Q7SCU1 1-579): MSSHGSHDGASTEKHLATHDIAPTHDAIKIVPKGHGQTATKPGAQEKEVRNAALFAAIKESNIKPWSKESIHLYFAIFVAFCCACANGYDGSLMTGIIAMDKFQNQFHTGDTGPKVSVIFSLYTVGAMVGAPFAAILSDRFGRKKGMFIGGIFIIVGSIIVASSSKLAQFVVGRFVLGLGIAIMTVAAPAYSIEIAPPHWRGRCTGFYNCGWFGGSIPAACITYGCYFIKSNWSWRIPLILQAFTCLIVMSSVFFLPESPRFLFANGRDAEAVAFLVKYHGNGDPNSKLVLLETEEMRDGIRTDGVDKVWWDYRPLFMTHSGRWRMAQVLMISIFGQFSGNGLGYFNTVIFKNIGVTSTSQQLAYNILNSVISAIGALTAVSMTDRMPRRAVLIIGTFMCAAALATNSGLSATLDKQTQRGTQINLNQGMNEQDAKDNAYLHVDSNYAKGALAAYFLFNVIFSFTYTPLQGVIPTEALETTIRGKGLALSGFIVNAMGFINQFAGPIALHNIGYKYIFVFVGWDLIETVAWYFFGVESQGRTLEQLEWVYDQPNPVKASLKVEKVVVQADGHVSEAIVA
Protocol: (§8) Briefly, the yeast strain D452-2 transformed with mutant transporters was set-up at an OD (600 nm) of −0.2 in 50 mL of DOB-uracil and grown to an OD (600 nm) of ˜1. Cells were then harvested by centrifugation, washed 3× with 10 mLs of transport buffer (30 mM MES-NaOH [pH 5.6], 50 mM EtOH), and resuspended to a final OD (600 nm) of ˜40 in transport buffer. The GFP fluorescence of 100 μL of these cells was determined with excitation/emission wavelengths of 485/535 nm Beckman Coulter Paradigm™ plate reader. […] Reactions were stopped by spinning cells through the oil for 1 minute at 17,000 g, tubes were frozen in ethanol/dry ice, and tube-bottoms containing the cell-pellets were clipped off into 1 mL of 0.5 M NaOH. The pellets were solubilized overnight, 5 mL of Ultima Gold scintillation fluid added, and CPM determined in a Tri-Carb 2900TR scintillation counter.

[4] = target: S. cerevisiae hexokinase Glk1 (NP_009890) (Saccharomyces cerevisiae, UniProt P17709); assay: Effect of cellobiose on activity of purified hexokinase Glk1; assay type: biochemical; conditions: read-out: reduction of hexokinase activity by cellobiose
S. cerevisiae hexokinase Glk1 (NP_009890), sequence (P17709 whole entry): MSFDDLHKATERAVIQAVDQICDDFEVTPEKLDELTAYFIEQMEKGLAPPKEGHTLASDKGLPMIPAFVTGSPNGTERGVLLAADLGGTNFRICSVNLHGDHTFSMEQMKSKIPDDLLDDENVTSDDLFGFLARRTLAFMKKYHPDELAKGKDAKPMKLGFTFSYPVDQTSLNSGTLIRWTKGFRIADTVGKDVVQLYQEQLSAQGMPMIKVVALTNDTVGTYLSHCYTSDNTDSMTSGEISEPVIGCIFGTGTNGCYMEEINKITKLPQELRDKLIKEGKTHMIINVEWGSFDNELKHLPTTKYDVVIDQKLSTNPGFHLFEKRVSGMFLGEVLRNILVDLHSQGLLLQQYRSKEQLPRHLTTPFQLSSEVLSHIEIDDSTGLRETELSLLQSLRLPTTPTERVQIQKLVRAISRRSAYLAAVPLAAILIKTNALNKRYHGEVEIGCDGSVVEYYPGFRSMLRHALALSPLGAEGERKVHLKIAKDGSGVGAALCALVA
Protocol: as §1, §2, §3

[5] = substrate: OC[C@H]1O[C@@H](O[C@H]2[C@H](O)[C@@H](O)C(O)O[C@@H]2CO)[C@H](O)[C@@H](O)[C@@H]1O; assay: Kinetic parameters of purified GH1-1 (glucose oxidase/peroxidase assay); assay type: biochemical, Neurospora crassa; conditions: other: GH1-1, glucose production from cellobiose, 50 mM phosphate pH 6.0
Protocol: (§4) The amount of cellobiase activity in cell extracts was determined by the Glucose oxidase/Peroxidase assay. […] The number of pmol of glucose produced per second was calculated by multiplying the rate of increase at 436 nm by 1.17×10^3, a conversion that was established from a glucose standard curve.
(§5) GH1-1 and SdCBP were purified directly from the D452-2 yeast strains described above. 200 mL cultures in DOB-uracil-leucine were grown to an OD (600 nm) of ˜7. Cells were pelleted and washed 1× with 40 mL ddH2O. Cell pellets were resuspended in 25 mL of 50 mM NaH2PO4 [pH 8.0], 300 mM NaCl, 10 mM imidazole, 2 mM DTT, and Roche Complete EDTA-free Protease Inhibitor Cocktail, and lysed by passage through an Avestin EmulsiFlex C-3 homogenizer at 20,000 P.S.I. Cell debris was then pelleted, and proteins purified using Nickel-NTA agarose beads from Qiagen following the protocol for native batch purification provided by Qiagen. Protein eluted from the beads was buffer exchanged into a buffer consisting of phosphate buffered saline (PBS), 10% glycerol, and 2 mM DTT, snap-frozen in (1)N2 and stored at −80° C. Protein concentrations were determined by the absorbance at 280 nm using extinction coefficients of 108750 M^−1 cm^−1 and 178540 M^−1 cm^−1, for GH1-1 and SdCBP, respectively.
(§6) A 1 mL assay included either […] of GH1-1 or […] SdCBP.
(§7) To assay the transglycosylation activity of GH1-1 and SdCBP, both enzymes were enriched from cell extracts by IMAC. […] The kinetic parameters of the enriched proteins were also measured, and the results are depicted in FIG. 12 and quantified in Table 12.

[6] = substrate: OC[C@H]1O[C@@H](O[C@H]2[C@H](O)[C@@H](O)C(O)O[C@@H]2CO)[C@H](O)[C@@H](O)[C@@H]1O; assay: cells, lysate or membranes; conditions: other: CDT-1 WT, [3H]-cellobiose uptake, pH 5.6
[7] = substrate: OC[C@H]1O[C@@H](O[C@H]2[C@H](O)[C@@H](O)C(O)O[C@@H]2CO)[C@H](O)[C@@H](O)[C@@H]1O; assay: Transporter kinetics, [3H]-cellobiose uptake into yeast; assay type: cell-based, Neurospora crassa; conditions: pH 5.6
Protocol: as §8

[8] = substrate: OC[C@H]1O[C@@H](O[C@H]2[C@H](O)[C@@H](O)C(O)O[C@@H]2CO)[C@H](O)[C@@H](O)[C@@H]1O; assay: Kinetic parameters of purified SdCBP (glucose oxidase/peroxidase assay); assay type: biochemical, Saccharophagus degradans; conditions: other: SdCBP, glucose production from cellobiose, 50 mM phosphate pH 6.0
Protocol: as §4, §5, §6, §7

## OC[C@H]1O[C@@H](O[C@H]2[C@H](O)[C@@H](O)C(O)O[C@@H]2CO)[C@H](O)[C@@H](O)[C@@H]1O (some centres unmarked) [cellobiose]
[1]
  inhibition at 184000 µM: ~20%
[2]
  effect of cellobiose on hexokinase activity: unaffected
[3]
  Vmax: 0.60 ± 0.03 µmol/s
[4]
  inhibition at 184000 µM: ~20%

B1: Neurospora crassa β-glucosidase GH1-1 (NCU00130) (Neurospora crassa OR74A) (protein)
chain: MSLPKDFLWGFATAAYQIEGAIHADGRGPSIWDTFCNIPGKIADGSSGAVACDSYNRTKEDIDLLKSLGATAYRFSISWSRIIPVGGRNDPINQKGIDHYVKFVDDLLEAGITPFITLFHWDLPDGLDKRYGGLLNREEFPLDFEHYARTMFKAIPKCKHWITFNEPWCSSILGYNSGYFAPGHTSDRTKSPVGDSAREPWIVGHNLLIAHGRAVKVYREDFKPTQGGEIGITLNGDATLPWDPEDPLDVEACDRKIEFAISWFADPIYFGKYPDSMRKQLGDRLPEFTPEEVALVKGSNDFYGMNHYTANYIKHKKGVPPEDDFLGNLETLFYNKKGNCIGPETQSFWLRPHAQGFRDLLNWLSKRYGYPKIYVTENGTSLKGENAMPLKQIVEDDFRVKYFNDYVNAMAKAHSEDGVNVKGYLAWSLMDNFEWAEGYETRFGVTYVDYENDQKRYPKKSAKSLKPLFDSLIKKD
[5]
  Km: 320 µM
  kcat: 7 s⁻¹
  kcat/Km: 21900 M⁻¹ s⁻¹

B2: Neurospora crassa cellodextrin transporter CDT-1 (NCU00801), wild type, SEQ ID NO: 9, GFP-tagged, in S. cerevisiae D452-2 (Neurospora crassa OR74A) (protein)
chain: T1 sequence (Q7SCU1 1-579)
[6]
  Km: 7.6 ± 1.5 µM

B3: Neurospora crassa cellodextrin transporter CDT-1 (SEQ ID NO: 9) variant G91A, GFP-tagged, in S. cerevisiae D452-2 (Neurospora crassa OR74A; G91A) (protein)
chain: T1 sequence (Q7SCU1 1-579) with G91A
notes: [3H]-cellobiose uptake
[7]; other: CDT-1 G91A
  Km: 43.5 ± 10.1 µM

B4: Neurospora crassa cellodextrin transporter CDT-1 (SEQ ID NO: 9) variant F213L, GFP-tagged, in S. cerevisiae D452-2 (Neurospora crassa OR74A; F213L) (protein)
chain: T1 sequence (Q7SCU1 1-579) with F213L
notes: [3H]-cellobiose uptake
[7]; other: CDT-1 F213L
  Km: 188.8 ± 55.3 µM

B5: Neurospora crassa cellodextrin transporter CDT-1 (SEQ ID NO: 9) variant F335A, GFP-tagged, in S. cerevisiae D452-2 (Neurospora crassa OR74A; F335A) (protein)
chain: T1 sequence (Q7SCU1 1-579) with F335A
notes: [3H]-cellobiose uptake
[7]; other: CDT-1 F335A
  Km: 114.8 ± 46.4 µM

B6: Saccharophagus degradans cellobiose phosphorylase SdCBP, wild type, SEQ ID NO: 12 (Saccharophagus degradans 2-40) (protein)
chain: MKFGHFDDKAREYVITDPKTPYPWINYLGNEDFFSLVSNTGGGYSFYKDAKFRRLTRYRYNNVPVDNGGKYFYINDSGDVWSPGWKPVKAELDAYSCAHGLSYTRITGERNGIQAEVLSFIPLGTWAEIQKVSLKNTSGATKKFKLFSFAEWCLWNAEDDMTNFQRNFSTGEVEVEDSVIYHKTEFKERRNHYAFYSVNAPIQGFDTDRDKWKGLYNDFDKPDAVFEGEPRNSEAHGWSPIASHYLEVELAPGESKDLIFVLGYIEVAPENKWESKGVINKSPAKELIARFDSVEKVDAELTKLADYWANLLSTYSVESGDEKLDRMVNIWNQYQCMVTFNMSRSASFFESGIGRGMGFRDSNQDLIGFVHQVPERARERIIDIASTQFEDGSAYHQYQPLTKRGNNAIGGNFNDDPLWLILSTTDYIKETGDFSILEEQVPYDNDASKATSHFEHLKRSFYHTVNNLGPHGLPLIGRADWNDCLNLNCFSEDPNESFQTTGNKTGRTAESLMIAGLFVLYGNEFVKLCREIGQDGEAAEAQAHIDQMVEAVKKHGWDGEWFLRAYDYYGKKVGSKENEEGKIFIESQGFCGMAGIGLEDGLVEKSMDSVKEWLDCDYGIVLQQPAFTKYYIEYGEISTYPAGYKENAGIFCHNNPWIMITETLLGRGDKAFEYYRKIAPAYLEEISDLHKVEPYAYCQMIAGKDAYLPGEGKNSWLTGTASWNFAAITQYILGVKPDYSGLAINPCIPSSWDGFKVTRKYRGATYNIIVTNPTHVSKGVKSLTLNGNAIDGYIVPPQQAGTVCNVEVTLG
[8]
  Km: 650 µM
  kcat: 7 s⁻¹
  kcat/Km: 11500 M⁻¹ s⁻¹
